Laboratory results: patent publication US20110195022A1 (IMMUNOGEN, published 2011)
Values joined by “and” are separate entries in the source; they are usually repeats but may differ in a detail not shown here. Equal values may be shown once. Read-outs that look alike come from different tables or passages of the source.

How the values were obtained:
[1] = molecular target: T1, human CD20 (human, UniProt P11836 1-297); test: cell-based or functional assay
T1 sequence (looked up): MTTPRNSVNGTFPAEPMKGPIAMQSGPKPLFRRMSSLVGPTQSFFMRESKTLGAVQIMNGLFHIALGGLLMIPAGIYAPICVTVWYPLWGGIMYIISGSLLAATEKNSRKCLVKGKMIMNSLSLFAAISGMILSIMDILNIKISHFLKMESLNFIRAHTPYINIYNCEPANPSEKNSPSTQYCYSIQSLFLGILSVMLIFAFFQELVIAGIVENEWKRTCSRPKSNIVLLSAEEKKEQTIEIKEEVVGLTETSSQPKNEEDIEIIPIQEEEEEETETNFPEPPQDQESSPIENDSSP

[2] = molecular target: T1, human CD20; test: flow cytometry titration on BJAB cells, apparent Kd from the dose-response curve
Protocol: (§1) Data analysis was performed using CellQuest Pro (BD Biosciences, San Diego, US) and for each sample the mean fluorescence intensity for FL1 (MFI) was exported and plotted against the antibody concentration in a semi-log plot.
The value for the apparent dissociation constant (Kd) of each antibody was calculated using GraphPad Prism v4 (GraphPad software, San Diego, Calif.).

[3] = molecular target: T1, human CD20; test: cell-based or functional assay; remark: listed apart in the source
[4] = molecular target: T1, human CD20; test: flow cytometry titration on BJAB cells, apparent Kd from the binding curve
Protocol: as §1

[5] = molecular target: T1, human CD20; test: flow cytometry, BJAB cells, MFI against antibody concentration
Protocol: as §1

[6] = molecular target: T2, CD20-A170S P172S variant (human, UniProt P11836 1-297); test: flow cytometry, 300-19 cells transfected with CD20-A170S P172S, MFI against antibody concentration
T2 construct: whole, on cells; also called CD20-AP; CD20AP
T2 sequence (looked up): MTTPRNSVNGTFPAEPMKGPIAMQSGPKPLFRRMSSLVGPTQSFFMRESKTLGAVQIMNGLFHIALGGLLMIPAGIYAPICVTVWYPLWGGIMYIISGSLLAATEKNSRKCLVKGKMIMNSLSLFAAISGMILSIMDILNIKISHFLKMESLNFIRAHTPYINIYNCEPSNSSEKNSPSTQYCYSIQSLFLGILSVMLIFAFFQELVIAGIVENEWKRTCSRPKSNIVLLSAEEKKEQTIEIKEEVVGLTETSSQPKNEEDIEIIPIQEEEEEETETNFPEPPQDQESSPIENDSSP

[7] = molecular target: T1, human CD20; test: flow cytometry, 300-19 cells transfected with wild type human CD20, MFI against antibody concentration
[8] = molecular target: T2, CD20-A170S P172S variant; test: flow cytometry, 300-19 cells transfected with CD20-A170S P172S, MFI against antibody concentration; remark: listed apart in the source

B1: chCD20-4 (antibody, V domains shown)
VH: EVKVEESGGGLVKTGGSMKLSCVASGFSFNNYWMNWVRQSPEKGLEWVAEIRLKSNNYATHYVESVKGRFTISRDDSKSSVYLQMNNLRAEDTGIYYCTGWDDYAMDHWGQGISVTVSS
VL: DIVMTQSQKFMSTSVGDRVSVNCKASQNVGTNVAWYQQKPRQSPKGLIYSASFRYSGVPDRFTGSGSGTDFTLTIFNVQSDDLAEYFCQQYNNYPLTFGGGTKLEIKR
notes: Chimeric antibody: murine CD20-4 variable regions cloned in frame with human constant regions (plasmids pchCD20-4HCN and pchCD20-4LCZ), expressed in HEK-293T; the murine VL/VH entries 5 and 6 are used; a huIgG1 isotype control was used beside it; also called chimeric CD20-4
EC50 of CDC, WSU-DLCL-2 cells, 5% human complement [1]: 27 ng/mL
Kd [2]: 0.47 nM

B2: huCD20-4-SMCC-DM1 (antibody, human IgG1, kappa, V domains shown)
VH: EVQVEESGGGLVQPGGSMRLSCVASGFSFNNYWMNWVRQSPGKGLEWVAEIRLKSNNYATHYVDSVKGRFTISRDDSKSSVYLQMNNLRAEDTGIYYCTGWDDYAMDHWGQGISVTVSS
VL: DIQMTQSPSTMSTSVGDRVSVNCKASQNVGTNVAWYQQKPGKSPKGLIYSASFRYSGVPSRFTGSGSGTDFTLTIFNVQPDDLAEYFCQQYNNYPLTFGGGTKLEIKR
modifications: DM1 linked through SMCC (thioether), 3.5-4 DM1 molecules per antibody; sites not stated
notes: also called huCD20-4-MCC-DM1
EC50 of ADCC, Granta-519 cells, human NK cells, LDH release [1]: 0.28 ng/mL
EC50 of ADCC, SU-DHL-4 cells, human NK cells, LDH release [1]: 0.27 ng/mL
EC50 of CDC, Daudi cells, 5% human complement [1]: ~80 ng/mL
EC50 of CDC, WSU-DLCL-2 cells, 5% human complement [1]: ~40 ng/mL
EC50 of in vitro cytotoxicity (WST-8), Daudi cells [1]: 0.21 nM
EC50 of in vitro cytotoxicity (WST-8), Ramos cells [1]: 0.22 nM and 0.35 nM
EC50 of in vitro cytotoxicity (WST-8), DOHH-2 cells [3]: 0.11 nM
EC50 of in vitro cytotoxicity (WST-8), Daudi cells [3]: 0.29 nM
EC50 of in vitro cytotoxicity (WST-8), Granta-519 cells [3]: 0.03 nM
EC50 of in vitro cytotoxicity (WST-8), Ramos cells [3]: 0.54 nM
EC50 of in vitro cytotoxicity (WST-8), SC-1 cells [3]: 0.6 nM
Kd [4]: 0.9 nM

B3: huCD20-4-SPDB-DM4 (antibody, human IgG1, kappa, V domains shown)
VH: EVQVEESGGGLVQPGGSMRLSCVASGFSFNNYWMNWVRQSPGKGLEWVAEIRLKSNNYATHYVDSVKGRFTISRDDSKSSVYLQMNNLRAEDTGIYYCTGWDDYAMDHWGQGISVTVSS
VL: DIQMTQSPSTMSTSVGDRVSVNCKASQNVGTNVAWYQQKPGKSPKGLIYSASFRYSGVPSRFTGSGSGTDFTLTIFNVQPDDLAEYFCQQYNNYPLTFGGGTKLEIKR
modifications: DM4 linked through SPDB (disulfide), 3.5-4 DM4 molecules per antibody; sites not stated
EC50 of CDC, WSU-DLCL-2 cells, 5% human complement [1]: ~40 ng/mL
EC50 of in vitro cytotoxicity (WST-8), Daudi cells [1]: 0.19 nM
EC50 of in vitro cytotoxicity (WST-8), Ramos cells [1]: 0.39 nM

B4: huCD20-4-SPP-DM1 (antibody, human IgG1, kappa, V domains shown)
VH: EVQVEESGGGLVQPGGSMRLSCVASGFSFNNYWMNWVRQSPGKGLEWVAEIRLKSNNYATHYVDSVKGRFTISRDDSKSSVYLQMNNLRAEDTGIYYCTGWDDYAMDHWGQGISVTVSS
VL: DIQMTQSPSTMSTSVGDRVSVNCKASQNVGTNVAWYQQKPGKSPKGLIYSASFRYSGVPSRFTGSGSGTDFTLTIFNVQPDDLAEYFCQQYNNYPLTFGGGTKLEIKR
modifications: DM1 linked through SPP (disulfide), 3.5-4 DM1 molecules per antibody; sites not stated
EC50 of in vitro cytotoxicity (WST-8), Daudi cells [1]: 0.4 nM
EC50 of in vitro cytotoxicity (WST-8), Ramos cells [1]: 0.35 nM
Kd [4]: 1.5 nM

B5: muCD20-4 (antibody, mouse IgG2a, kappa, V domains shown)
VH: EVKVEESGGGLVKTGGSMKLSCVASGFSFNNYWMNWVRQSPEKGLEWVAEIRLKSNNYATHYVESVKGRFTISRDDSKSSVYLQMNNLRAEDTGIYYCTGWDDYAMDHWGQGISVTVSS
VL: DIVMTQSQKFMSTSVGDRVSVNCKASQNVGTNVAWYQQKPRQSPKGLIYSASFRYSGVPDRFTGSGSGTDFTLTIFNVQSDDLAEYFCQQYNNYPLTFGGGTKLEIKR
notes: Murine monoclonal antibody purified from hybridoma supernatant (ATCC PTA-10485 or PTA-10561); also called murine CD20-4
Kd [2]: 0.97 nM

B6: huCD20-4 (antibody, human IgG1, kappa, V domains shown)
VH: EVQVEESGGGLVQPGGSMRLSCVASGFSFNNYWMNWVRQSPGKGLEWVAEIRLKSNNYATHYVDSVKGRFTISRDDSKSSVYLQMNNLRAEDTGIYYCTGWDDYAMDHWGQGISVTVSS
VL: DIQMTQSPSTMSTSVGDRVSVNCKASQNVGTNVAWYQQKPGKSPKGLIYSASFRYSGVPSRFTGSGSGTDFTLTIFNVQPDDLAEYFCQQYNNYPLTFGGGTKLEIKR
notes: Resurfaced antibody expressed in HEK-293T cells; also called humanized CD20-4; resurfaced CD20-4
EC50 of ADCC, DOHH-2 cells, human NK cells, LDH release [1]: 0.57 ng/mL
EC50 of ADCC, Granta-519 cells, human NK cells, LDH release [1]: 0.28 ng/mL and 0.29 ng/mL
EC50 of ADCC, JVM-13 cells, human NK cells, LDH release [1]: 0.097 ng/mL
EC50 of ADCC, Ramos cells, human NK cells, LDH release [1]: 0.4 ng/mL
EC50 of ADCC, SU-DHL-4 cells, human NK cells, LDH release [1]: 0.2 ng/mL
EC50 of ADCC, WSU-DLCL-2 cells, human NK cells, LDH release [1]: 0.4 ng/mL
EC50 of CDC, Daudi cells, 5% human complement [1]: 50 ng/mL and ~50 ng/mL
EC50 of CDC, Raji cells, 5% human complement [1]: 32 ng/mL
EC50 of CDC, Ramos cells, 5% human complement [1]: 10 ng/mL
EC50 of CDC, SU-DHL-4 cells, 5% human complement [1]: 30 ng/mL
EC50 of CDC, WSU-DLCL-2 cells, 5% human complement [1]: ~40 ng/mL
Kd [4]: 1 nM
EC50 (read off the curve) [5]: ~0.6 nM
Kd [2]: 0.46 nM
binding result [6]: no binding (tested: 1e-7 M)
EC50 (read off the curve) [7]: ~1 nM

B7: 2F2 (antibody, V domains shown)
VH: EVQLVESGGGLVQPGRSLRLSCAASGFTFNDYAMHWVRQAPGKGLEWVSTISWNSGSIGYADSVKGRFTISRDNAKKSLYLQMNSLRAEDTALYYCAKDIQYGNYYYGMDVWGQGTTVTVSS
VL: EIVLTQSPATLSLSPGERATLSCRASQSVSSYLAWYQQKPGQAPRLLIYDASNRATGIPARFSGSGSGTDFTLTISSLEPEDFAVYYCQQRSNWPITFGQGTRLEIK
EC50 (read off the curve) [6]: ~2 nM
EC50 (read off the curve) [8]: ~4 nM

B8: chCD20-20 (antibody, V domains shown)
VH: QVQLQQSGAELARPGASVKLSCKASGYTFTSYWMHWVKQRPGQGLEWIGAIYPGDGDTRYTQKFKGKATLTADKSSYTAYMQLSSLASEDSAVYYCARSPDFYGSGYDFDYWGQGTTLTVSS
VL: DIKMTQSPSSMYTSLGERVTITCKASQDINSFLSWFQQKPGKSPKTLIYRAYRLVDGVPSRFSGSGSGQDYSLTISSLEFEDMGIYYCLQSGAFPLTFGAGTKLELKR
notes: Chimeric antibody: murine CD20-20 variable regions with human constant regions (equivalent plasmids to chCD20-4), expressed in HEK-293T; the murine VL/VH entries 7 and 8 are used; also called chimeric CD20-20
EC50 of CDC, WSU-DLCL-2 cells, 5% human complement [1]: 84 ng/mL
Kd [2]: 0.42 nM
EC50 (read off the curve) [7]: ~0.7 nM

B9: muCD20-20 (antibody, mouse IgG1, kappa, V domains shown)
VH: QVQLQQSGAELARPGASVKLSCKASGYTFTSYWMHWVKQRPGQGLEWIGAIYPGDGDTRYTQKFKGKATLTADKSSYTAYMQLSSLASEDSAVYYCARSPDFYGSGYDFDYWGQGTTLTVSS
VL: DIKMTQSPSSMYTSLGERVTITCKASQDINSFLSWFQQKPGKSPKTLIYRAYRLVDGVPSRFSGSGSGQDYSLTISSLEFEDMGIYYCLQSGAFPLTFGAGTKLELKR
notes: Murine monoclonal antibody purified from hybridoma supernatant; also called murine CD20-20
Kd [2]: 0.59 nM

B10: rituximab (antibody, V domains shown)
VH: QVQLQQPGAELVKPGASVKMSCKASGYTFTSYNMHWVKQTPGRGLEWIGAIYPGNGDTSYNQKFKGKATLTADKSSSTAYMQLSSLTSEDSAVYYCARSTYYGGDWYFNVWGAGTTVTVSA
VL: QIVLSQSPAILSASPGEKVTMTCRASSSVSYIHWFQQKPGSSPKPWIYATSNLASGVPVRFSGSGSGTSYSLTISRVEAEDAATYYCQQWTSNPPTFGGGTKLEIK
EC50 of ADCC, DOHH-2 cells, human NK cells, LDH release [1]: 1.08 ng/mL
EC50 of ADCC, Granta-519 cells, human NK cells, LDH release [1]: 1.23 ng/mL
EC50 of ADCC, JVM-13 cells, human NK cells, LDH release [1]: 0.29 ng/mL
EC50 of ADCC, Ramos cells, human NK cells, LDH release [1]: 3.5 ng/mL
EC50 of ADCC, SU-DHL-4 cells, human NK cells, LDH release [1]: 0.53 ng/mL
EC50 of CDC, Daudi cells, 5% human complement [1]: 300 ng/mL
EC50 of CDC, Raji cells, 5% human complement [1]: 110 ng/mL
EC50 of CDC, Ramos cells, 5% human complement [1]: 60 ng/mL
EC50 of CDC, SU-DHL-4 cells, 5% human complement [1]: 310 ng/mL
EC50 of CDC, WSU-DLCL-2 cells, 5% human complement [1]: 350 ng/mL and 190 ng/mL
